Experimental data from IntAct's records for PubMed 26188084.

B1: Serine/threonine-protein kinase PLK4 (Homo sapiens), O00444 (parent)
chain: MATCIGEKIEDFKVGNLLGKGSFAGVYRAESIHTGLEVAIKMIDKKAMYKAGMVQRVQNEVKIHCQLKHPSILELYNYFEDSNYVYLVLEMCHNGEMNRYLKNRVKPFSENEARHFMHQIITGMLYLHSHGILHRDLTLSNLLLTRNMNIKIADFGLATQLKMPHEKHYTLCGTPNYISPEIATRSAHGLESDVWSLGCMFYTLLIGRPPFDTDTVKNTLNKVVLADYEMPSFLSIEAKDLIHQLLRRNPADRLSLSSVLDHPFMSRNSSTKSKDLGTVEDSIDSGHATISTAITASSSTSISGSLFDKRRLLIGQPLPNKMTVFPKNKSSTDFSSSGDGNSFYTQWGNQETSNSGRGRVIQDAEERPHSRYLRRAYSSDRSGTSNSQSQAKTYTMERCHSAEMLSVSKRSGGGENEERYSPTDNNANIFNFFKEKTSSSSGSFERPDNNQALSNHLCPGKTPFPFADPTPQTETVQQWFGNLQINAHLRKTTEYDSISPNRDFQGHPDLQKDTSKNAWTDTKVKKNSDASDNAHSVKQQNTMKYMTALHSKPEIIQQECVFGSDPLSEQSKTRGMEPPWGYQNRTLRSITSPLVAHRLKPIRQKTKKAVVSILDSEEVCVELVKEYASQEYVKEVLQISSDGNTITIYYPNGGRGFPLADRPPSPTDNISRYSFDNLPEKYWRKYQYASRFVQLVRSKSPKITYFTRYAKCILMENSPGADFEVWFYDGVKIHKTEDFIQVIEKTGKSYTLKSESEVNSLKEEIKMYMDHANEGHRICLALESIISEEERKTRSAPFFPIIIGRKPGSTSSPKALSPPPSVDSNYPTRERASFNRMVMHSAASPTQAPILNPSMVTNEGLGLTTTASGTDISSNSLKDCLPKSAQLLKSVFVKNVGWATQLTSGAVWVQFNDGSQLVVQAGVSSISYTSPNGQTTRYGENEKLPDYIKQKLQCLSSILLMFSNPTPNFH
partner: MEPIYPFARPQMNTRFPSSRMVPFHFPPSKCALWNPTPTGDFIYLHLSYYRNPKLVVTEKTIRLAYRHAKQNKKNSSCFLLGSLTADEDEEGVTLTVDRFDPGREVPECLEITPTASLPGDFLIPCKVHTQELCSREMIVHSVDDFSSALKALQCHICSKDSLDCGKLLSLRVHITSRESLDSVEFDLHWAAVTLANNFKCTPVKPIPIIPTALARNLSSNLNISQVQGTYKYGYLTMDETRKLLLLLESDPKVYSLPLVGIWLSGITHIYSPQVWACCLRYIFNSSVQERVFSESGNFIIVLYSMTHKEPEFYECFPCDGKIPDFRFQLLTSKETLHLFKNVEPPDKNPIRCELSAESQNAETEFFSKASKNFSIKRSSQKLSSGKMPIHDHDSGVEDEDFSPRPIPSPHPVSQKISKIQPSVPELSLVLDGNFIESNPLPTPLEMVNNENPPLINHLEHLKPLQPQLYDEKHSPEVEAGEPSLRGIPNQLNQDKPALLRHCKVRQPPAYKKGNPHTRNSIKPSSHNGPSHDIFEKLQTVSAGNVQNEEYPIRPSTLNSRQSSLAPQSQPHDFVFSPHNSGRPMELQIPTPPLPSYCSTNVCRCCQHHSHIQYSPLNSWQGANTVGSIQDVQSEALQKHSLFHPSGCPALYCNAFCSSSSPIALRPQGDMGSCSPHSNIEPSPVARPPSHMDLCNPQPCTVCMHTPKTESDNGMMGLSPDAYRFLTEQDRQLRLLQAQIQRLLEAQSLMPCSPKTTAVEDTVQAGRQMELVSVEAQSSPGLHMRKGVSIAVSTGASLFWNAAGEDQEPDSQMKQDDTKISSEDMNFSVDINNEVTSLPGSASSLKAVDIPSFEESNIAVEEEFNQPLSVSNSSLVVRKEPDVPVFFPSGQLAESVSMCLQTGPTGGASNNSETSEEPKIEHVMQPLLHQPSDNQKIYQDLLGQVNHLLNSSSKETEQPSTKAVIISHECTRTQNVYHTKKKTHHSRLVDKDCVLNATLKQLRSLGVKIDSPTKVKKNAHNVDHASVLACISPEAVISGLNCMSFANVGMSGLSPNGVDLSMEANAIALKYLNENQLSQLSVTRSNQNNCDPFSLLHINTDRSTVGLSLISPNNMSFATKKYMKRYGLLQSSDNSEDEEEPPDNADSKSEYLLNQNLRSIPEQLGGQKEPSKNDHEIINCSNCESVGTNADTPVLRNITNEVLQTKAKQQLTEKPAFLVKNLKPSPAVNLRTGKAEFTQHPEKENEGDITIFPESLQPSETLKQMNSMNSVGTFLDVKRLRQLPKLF
B2: SCL-interrupting locus protein (Homo sapiens), Q15468 (parent)
chain: B1 partner
partner: B1 chain

Variants of: B1
Settings: with stil_human STIL

Variant	effect of a mutation on the interaction
S285A;T289A	with no effect

Variants of: B2
Settings: with plk4_human PLK4, O00444

Variant	effect of a mutation on the interaction
L733E;I740E;L743E	with no effect
L733D;L743D	decreasing interaction strength
L733Y;L743Y	with no effect
L733D;I740K;L743D	with no effect
L733D;L736E;L743D	with no effect
Q737K;Q739E	decreasing interaction strength
L733D;L736E;I740K;L743D	with no effect
